According to publication PMC12416549 (2024):
Substitutions are numbered along the chain they refer to. In names and notes the source's numbering stands.

T1: TNFR1 (Homo sapiens, UniProt P19438)
T1 chain: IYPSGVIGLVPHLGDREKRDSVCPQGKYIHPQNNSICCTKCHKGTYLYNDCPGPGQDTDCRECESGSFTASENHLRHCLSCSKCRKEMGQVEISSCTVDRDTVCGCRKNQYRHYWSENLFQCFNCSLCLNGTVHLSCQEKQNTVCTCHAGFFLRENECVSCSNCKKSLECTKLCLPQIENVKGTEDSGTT

B1: A76W (designed binder)
chain: MTLQELLREEALRRAEAEAFRYALELLAEKFPEQKEYLLDLAEEIESQIRSLSGVDVEDVRKFLDKEWAWVKELLWEHPAELAEVEAARAARLAELRAEVEAKVAA
B2: A102C (designed binder)
chain: B1 chain with W76A, A102C
B3: D65Y (designed binder)
chain: B1 chain with D65Y, W76A
B4: V100F (designed binder)
chain: B1 chain with W76A, V100F
B5: Y22W (designed binder)
chain: B1 chain with Y22W, W76A
B6: E84T (designed binder)
chain: B1 chain with W76A, E84T
B7: E77L (designed binder)
chain: B1 chain with W76A, E77L
B8: E81N (designed binder)
chain: B1 chain with W76A, E81N
B9: T2L (designed binder)
chain: B1 chain with T2L, W76A
B10: A106N (designed binder)
chain: B1 chain with W76A, A106N
B11: H78D (designed binder)
chain: B1 chain with W76A, H78D
B12: A88L (designed binder)
chain: B1 chain with W76A, A88L
B13: V55W (designed binder)
chain: B1 chain with V55W, W76A
B14: V57G (designed binder)
chain: B1 chain with V57G, W76A
B15: E95M (designed binder)
chain: B1 chain with W76A, E95M
B16: A83L (designed binder)
chain: B1 chain with W76A, A83L
B17: A76S (designed binder)
chain: B1 chain with W76S
B18: V60C (designed binder)
chain: B1 chain with V60C, W76A
B19: M1V (designed binder)
chain: B1 chain with M1V, W76A
B20: L39Q (designed binder)
chain: B1 chain with L39Q, W76A
B21: A15P (designed binder)
chain: B1 chain with A15P, W76A
B22: R61D (designed binder)
chain: B1 chain with R61D, W76A
B23: R13T (designed binder)
chain: B1 chain with R13T, W76A
B24: L96T (designed binder)
chain: B1 chain with W76A, L96T
B25: E29M (designed binder)
chain: B1 chain with E29M, W76A
B26: L3C (designed binder)
chain: B1 chain with L3C, W76A
B27: E46W (designed binder)
chain: B1 chain with E46W, W76A
B28: V57W (designed binder)
chain: B1 chain with V57W, W76A
B29: R50W (designed binder)
chain: B1 chain with R50W, W76A
B30: V104W (designed binder)
chain: B1 chain with W76A, V104W
B31: A80D (designed binder)
chain: B1 chain with W76A, A80D
B32: A28M (designed binder)
chain: B1 chain with A28M, W76A
B33: A11K (designed binder)
chain: B1 chain with A11K, W76A
B34: A91E (designed binder)
chain: B1 chain with W76A, A91E
B35: E101T (designed binder)
chain: B1 chain with W76A, E101T
B36: D56M (designed binder)
chain: B1 chain with D56M, W76A
B37: A102R (designed binder)
chain: B1 chain with W76A, A102R
B38: F31C (designed binder)
chain: B1 chain with F31C, W76A
B39: E18M (designed binder)
chain: B1 chain with E18M, W76A
B40: V57M (designed binder)
chain: B1 chain with V57M, W76A
B41: A76L (designed binder)
chain: B1 chain with W76L
B42: D56R (designed binder)
chain: B1 chain with D56R, W76A
B43: L96H (designed binder)
chain: B1 chain with W76A, L96H
B44: L6R (designed binder)
chain: B1 chain with L6R, W76A
B45: R13V (designed binder)
chain: B1 chain with R13V, W76A
B46: A83W (designed binder)
chain: B1 chain with W76A, A83W
B47: L93M (designed binder)
chain: B1 chain with W76A, L93M
B48: Q34G (designed binder)
chain: B1 chain with Q34G, W76A
B49: I45Y (designed binder)
chain: B1 chain with I45Y, W76A
B50: E33A (designed binder)
chain: B1 chain with E33A, W76A
B51: A11T (designed binder)
chain: B1 chain with A11T, W76A
B52: T2R (designed binder)
chain: B1 chain with T2R, W76A
B53: K72V (designed binder)
chain: B1 chain with K72V, W76A
B54: W70I (designed binder)
chain: B1 chain with W70I, W76A
B55: E101V (designed binder)
chain: B1 chain with W76A, E101V
B56: A91M (designed binder)
chain: B1 chain with W76A, A91M
B57: A87Q (designed binder)
chain: B1 chain with W76A, A87Q
B58: F31T (designed binder)
chain: B1 chain with F31T, W76A
B59: K72Y (designed binder)
chain: B1 chain with K72Y, W76A

Biological target: T1, TNFR1
Assay: yeast display SC50

apparent Kd (screen) [nM]	Binder
0.446	B1
0.539	B2
0.653	B3
0.49	B4
0.49	B5
0.49	B6
0.446	B7
0.539	B8
0.49	B9
1.69	B10
0.593	B11
0.49	B12
1.16	B13
1.86	B14
0.446	B15
0.446	B16
0.49	B17
0.79	B18
0.539	B19
1.27	B20

apparent Kd (screen) [nM]	Binder
2.73	B21
11.4	B22
0.335	B23
0.49	B24
0.539	B25
12.5	B26
0.368	B27
1.27	B28
2.73	B29
0.869	B30
0.49	B31
9.41	B32
0.539	B33
0.593	B34
1.05	B35
0.956	B36
0.446	B37
0.653	B38
0.49	B39
2.48	B40

apparent Kd (screen) [nM]	Binder
0.49	B41
2.25	B42
0.49	B43
12.5	B44
0.335	B45
0.49	B46
0.539	B47
0.593	B48
1.86	B49
0.208	B50
0.593	B51
0.956	B52
0.593	B53
13.8	B54
0.539	B55
0.869	B56
0.653	B57
0.593	B58
0.593	B59
